{"source": "patent US20100243450", "about": "“NON-EQUILIBRIUM CAPILLARY ELECTROPHORESIS OF EQUILIBRIUM MIXTURES (NECEEM)-BASED METHODS FOR DRUG AND DIAGNOSTIC DEVELOPMENT” (published 2010)", "binders": {"B1": {"name": "DNA-1/DNA-3 hybrid (mixed)", "DNA 1": "GCGGAGCGTGGCAGG", "DNA 2": "CCTGCCACGCTCCGCTCTAAAAATAA"}, "B2": {"name": "fDNA 15-mer (DNA-1) (ssDNA)", "DNA": "GCGGAGCGTGGCAGG"}, "B3": {"name": "DNA-1/DNA-3/DNA-2 hybrid (dsDNA)", "DNA 1": "GCGGAGCGTGGCAGG", "DNA 2": "CCTGCCACGCTCCGCTCTAAAAATAA", "DNA 3": "TTATTTTTAG"}}, "key": {"[1]": {"molecular_target": "T1, SSB (single-stranded DNA-binding protein) (UniProt P0AGE0 P0AGE0:2-178)", "T1 sequence (P0AGE0 2-178, one chain of several)": "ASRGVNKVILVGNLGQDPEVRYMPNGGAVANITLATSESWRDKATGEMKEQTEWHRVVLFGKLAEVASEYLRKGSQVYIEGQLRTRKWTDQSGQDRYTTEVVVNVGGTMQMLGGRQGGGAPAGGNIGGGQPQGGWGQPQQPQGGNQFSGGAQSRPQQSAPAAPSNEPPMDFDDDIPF", "assay": "NECEEM run buffer 25 mM tetraborate pH 9.4 with 100 nM SSB; binds via single-stranded overhang", "conditions": "chain copies: 4; label: 5'-fluorescein on DNA-1; duplex with 10-nt single-stranded overhang"}, "[2]": {"molecular_target": "T1, SSB (single-stranded DNA-binding …)", "assay": "NECEEM; 25 mM tetraborate pH 9.4, incubated at room temperature; koff 3.3e-2 s-1, kon 1.2e5 M-1 s-1", "conditions": "chain copies: 4; label: 5'-fluorescein", "protocol": "SSB and a fluorescently-labeled 15-mer ssDNA oligonucleotide, 5′-fluorescein-[…] ([…]) were used in this example (Berezovski and Krylov J. Amer. Chem. Soc. 2002, 124, 13674). NECEEM separation of protein-DNA complexes was performed using a laboratory-built CE instrument with fluorescence detector described in detail elsewhere (Wu and Dovichi J. Chromatogr. 1989, 480, 141). A 488 nm line of an Argon-ion laser was utilized to excite the fluorescence of the DNA. Uncoated fused silica capillaries of 40 cm×20 μm I.D.×150 μm O.D. were used. The electrophoresis was run with a positive electrode at the injection end biased at +24 kV. The run buffer for NECEEM was 25.0 mM tetraborate at pH 9.4. The samples were injected into the capillary by a pressure pulse of 1 s×9.1 kPa; the length of corresponding sample plug was 0.93 mm as was calculated using the Poiseulle equation (Krylov et al. Anal. Chem. 2000, 72, 872). The capillary was rinsed with the run buffer solution for 2 minutes prior to each run. At the end of each run, the capillary was rinsed with 100 mM NaOH for 2 minutes, followed by a rinse with deionized water for 2 minutes.\nEquilibrium mixtures of SSB, fDNA and SSB•fDNA complex were prepared by mixing solutions of 16 μM SSB and 205 nM fDNA in the run buffer at a desired volume ratio and incubating them at room temperature to reach equilibrium prior to the analysis. […]"}, "[3]": {"molecular_target": "T1, SSB (single-stranded DNA-binding …)", "assay": "NECEEM run buffer 25 mM tetraborate pH 9.4 with 100 nM SSB; fully double-stranded, not bound", "conditions": "chain copies: 4; label: 5'-fluorescein on DNA-1; duplex without single-stranded overhang"}}, "data": [{"binder": "B1", "values": [{"measurement": "binding result", "setting": "[1]", "value": "binds"}]}, {"binder": "B2", "values": [{"measurement": "Kd", "setting": "[2]", "value": 280, "unit": "nM"}]}, {"binder": "B3", "values": [{"measurement": "binding result", "setting": "[3]", "value": "no binding"}]}]}
